The target in assay [1] is TrkB (UniProt Q16620). The settings on record: cited from earlier work.
Another assay deals with TrkA 97-120 (UniProt P04629). The following applies: cited from earlier work.
In another assay the target is TrkA (UniProt P04629). The following applies: cited from earlier work.
Assay [2] has as its target TrkB. The class given is binding.

Sequence of UniProt Q16620 (Q16620 32-430): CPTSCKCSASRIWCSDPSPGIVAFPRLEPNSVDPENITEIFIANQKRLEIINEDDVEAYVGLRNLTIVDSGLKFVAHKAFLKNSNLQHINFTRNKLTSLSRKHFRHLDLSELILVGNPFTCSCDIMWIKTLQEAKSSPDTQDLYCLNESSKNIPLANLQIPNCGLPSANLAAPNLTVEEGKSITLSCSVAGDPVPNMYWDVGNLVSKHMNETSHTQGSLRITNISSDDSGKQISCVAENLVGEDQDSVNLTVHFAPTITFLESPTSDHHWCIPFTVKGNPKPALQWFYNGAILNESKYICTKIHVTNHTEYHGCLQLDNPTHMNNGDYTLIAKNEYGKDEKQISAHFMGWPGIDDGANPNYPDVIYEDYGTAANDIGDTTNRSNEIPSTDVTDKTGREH

For BDNF (from UniProt P23560), the Kd (as a rule, the equilibrium constant for the complex coming apart) with TrkB [1] is 1 nM.

NGF (from UniProt P01139): the results for the Kd with TrkA 97-120 and with TrkA were 1.3 nM and 1 nM, respectively.

`CN(C)CCC=C1c2ccccc2CCc2ccccc21` [amitriptyline] showed a Kd at TrkB [2] of approximately 14000 nM.

Values taken from paper PMC2844702 (Chemistry & biology, 2009).
